Source: article PMC12086574 (Molecular Biology of the Cell, 2025)

Target: the molecule itself
Test: SEC

B1: His6-SEPT7G (domain or fragment)
chain: GFEFTLMVVGESGLGKSTLINSLFLTDLYSPEYPGPSHRIKKTVQVEQSKVLIKEGGVQLLLTIVDTPGFGDAVDNSNCWQPVIDYIDSKFEDYLNAESRVNRRQMPDNRVQCCLYFIAPSGHGLKPLDIEFMKRLHEKVNIIPLIAKADTLTPEECQQFKKQIMKEIQEHKIKIYEFPETDDEEENKLVKKIKDRLPLAVVGSNTIIEVNGKRVRGRQYPWGVAEVENGEHCDFTILRNMLIRTHMQDLKDVTNNVHYENYRSRKLAAVT
  stoichiometry N: 2
